The values below are quoted from earlier work in paper PMC2656448.

This data set has as its target Histone H3 (H3K4me0) (Homo sapiens) (UniProt P68431).

With AIRE PHD1 (from UniProt O43918), the Kd was 5 µM.
